Laboratory results reported in US20110143953A1.

Experiments:
[1] = molecular target: AKT1 (as used in SPR), P31749; experiment: SPR
transferrin, P02787 [2] = experiment: SPR
transferrin, P02787 [3] = experiment: SPR, transferrin immobilized, Kd from kinetics

Sequence of transferrin, P02787 (P02787 20-698 limits assumed): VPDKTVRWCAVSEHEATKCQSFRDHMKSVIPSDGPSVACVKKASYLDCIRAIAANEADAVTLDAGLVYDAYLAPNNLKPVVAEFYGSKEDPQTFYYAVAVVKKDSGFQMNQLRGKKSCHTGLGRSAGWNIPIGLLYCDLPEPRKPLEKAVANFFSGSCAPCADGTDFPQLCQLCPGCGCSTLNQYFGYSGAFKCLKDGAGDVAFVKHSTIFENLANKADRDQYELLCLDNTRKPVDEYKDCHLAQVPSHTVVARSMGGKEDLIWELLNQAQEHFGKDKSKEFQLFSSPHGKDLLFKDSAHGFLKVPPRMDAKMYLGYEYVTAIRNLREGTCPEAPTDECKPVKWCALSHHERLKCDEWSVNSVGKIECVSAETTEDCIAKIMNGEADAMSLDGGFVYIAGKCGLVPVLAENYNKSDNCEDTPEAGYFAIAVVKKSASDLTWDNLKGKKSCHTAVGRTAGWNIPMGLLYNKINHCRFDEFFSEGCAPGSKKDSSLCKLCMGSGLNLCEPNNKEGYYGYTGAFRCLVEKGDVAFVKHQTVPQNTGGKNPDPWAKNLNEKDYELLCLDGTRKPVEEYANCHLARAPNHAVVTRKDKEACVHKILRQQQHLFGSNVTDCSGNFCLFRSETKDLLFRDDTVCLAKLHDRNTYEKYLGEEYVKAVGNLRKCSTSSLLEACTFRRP
Sequence of AKT1 (as used in SPR), P31749 (P31749 whole entry): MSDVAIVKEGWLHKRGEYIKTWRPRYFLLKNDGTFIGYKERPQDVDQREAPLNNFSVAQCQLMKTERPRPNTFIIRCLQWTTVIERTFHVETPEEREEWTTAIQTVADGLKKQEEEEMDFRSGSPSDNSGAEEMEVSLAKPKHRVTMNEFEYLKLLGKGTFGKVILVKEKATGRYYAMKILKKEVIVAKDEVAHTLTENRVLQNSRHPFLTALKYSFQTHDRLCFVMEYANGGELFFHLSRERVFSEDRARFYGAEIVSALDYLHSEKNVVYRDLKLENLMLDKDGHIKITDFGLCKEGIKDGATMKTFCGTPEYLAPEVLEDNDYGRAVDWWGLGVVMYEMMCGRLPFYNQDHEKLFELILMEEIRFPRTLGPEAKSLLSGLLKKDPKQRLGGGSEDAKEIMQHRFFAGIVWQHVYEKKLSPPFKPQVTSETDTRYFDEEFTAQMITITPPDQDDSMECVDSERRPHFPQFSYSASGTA

- Kd [1]: 1 nM
- Kd (transferrin, P02787 [2]): 141 nM
- Kd (transferrin, P02787 [3]): 150 nM
B1: SYN23-26 (designed binder)
peptide 1: FRGWAHIFFGPHVIYRGGSG
peptide 2: AHKVVPQRQIRHAYNRYGSG
modifications: not fully specified; C-terminal glycine joined to one of the two amines (alpha or epsilon) of a lysine linker; chain 1 pos 20 and chain 2 pos 20: the C-terminal Gly of each 20-mer is joined to the alpha or the epsilon amine of one branching lysine (about 1 nm spacing). The lysine is followed by a C-terminal cysteine whose thiol is biotinylated for the array. The Lys-Cys core is left out of the …
